What was measured:
[1] = biological target: Hsp90 from Saccharomyces cerevisiae (Hsp82) with D61C, CpK at position 452 and a C-terminal coiled-coil motif, labelled with Atto 550 / Atto 647N and DNA oligonucleotide (Saccharomyces cerevisiae) (UniProt P02829); test: optical tweezers (single-molecule force spectroscopy); dye-labeled Hsp90 dimer tethered at position 452 of both monomers between two beads by 2.5 kbp DNA handles; constant velocity 500 nm s^-1; no AMP-PNP; 147 unfolding traces
[2] = biological target: Hsp90 from Saccharomyces cerevisiae (Hsp82) with D61C, CpK at position 452 and a C-terminal coiled-coil motif, labelled with Atto 550 / Atto 647N and DNA oligonucleotide (Saccharomyces cerevisiae) (UniProt P02829); test: optical tweezers (single-molecule force spectroscopy); dye-labeled Hsp90 dimer tethered at position 452 of both monomers between two beads by 0.5 kbp DNA handles; constant velocity 500 nm s^-1; no nucleotide; 172 unfolding traces
[3] = biological target: Hsp90 from Saccharomyces cerevisiae (Hsp82) with D61C, CpK at position 452 and a C-terminal coiled-coil motif, labelled with Atto 550 / Atto 647N and DNA oligonucleotide (Saccharomyces cerevisiae) (UniProt P02829); test: optical tweezers (single-molecule force spectroscopy); dye-labeled Hsp90 dimer tethered at position 452 by 2.5 kbp DNA handles; constant velocity 500 nm s^-1; 2 mM AMP-PNP, incubated 30 min at 21°C; 26 traces

- dissociation force, C-terminal dimer dissociation [1]: 16.5 pN
- dissociation force, C-terminal dimer dissociation [2]: 16.8 pN
- dissociation force, C-terminal dimer dissociation [3]: 10.7 pN
- force of N-terminal dimer opening [3]: 8.8 pN
Substance: Hsp90 from Saccharomyces cerevisiae (Hsp82) with D61C, CpK at position 452 and a C-terminal coiled-coil motif, labelled with Atto 550 / Atto 647N and DNA oligonucleotide (from UniProt P02829 1-709) (natural protein)
